Measurements: the nanobody polyreactivity screen of Harvey et al. (2022)

test: yeast display, Sf9 membrane polyspecificity reagent, FACS + sequencing; frameworks hold sequencing errors
In short: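 Synthetic nanobody libraries on Saccharomyces cerevisiae BJ5465 were galactose-induced for 36–48 hours, stained 1 hour at 4 °C with 10% biotinylated, detergent-solubilized Sf9 membrane reagent and enriched on streptavidin microbeads. FACS then separated cells into low and high (top ~1%) gates by anti-HA (expression) and streptavidin (reagent binding) fluorescence. Genes were colony-PCR amplified, MiSeq 2 × 250 sequenced and CDR-length filtered. A clone's polyreactivity label is that of its gate of origin.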

Sequence | polyreactivity (PSR sort gate)
QVQLVESGGGLVQAGGSLRLTCAASGRIFLINPMGWYRQAPGKDRELVAGIRGRTGSTNYADSVKGRFTISRDNAKNTVYLQMNRLKPEDTAVYYCAARFSVQDGGPYAYDYWGQGTQVTVSS | low polyreactivity
QVQLVESGGGLVQAGGSLRLSCAASGSTSQSNAMGRYRQAPGKERELVAAISWSGTSTYYADSVKGRFTISRDNAKNTVYLQMNSLKPEDTAVYYCAADYIFDYDYWGQGTQVTVSS | low polyreactivity
QVQLVESGGGLVQAGGSLRLICAASGYIFYKNAMGWYRQAPGKERELVASITGTGGSTYYADSVKGRFTISRDNAKNTVYLQMNSLKPEDTAVYYCAADYTPWDPVSHWGQGTQVTVSS | low polyreactivity
QVKLVESGGGLVQAGGSLLLSCAASGRTFYRYAMGWYIQAPGKERELVARISSGGGTYYADSVKGRFTISRDNAKNTVYLQMNSLKPEVTAVYYCNADVYRWSGSYTGWDSWHDYWGQGTQVSVSS | low polyreactivity
QVQLVESRGGLVQAGGSLSLSCAASGRIFYIYDMGWYRQAPGKERELVAAISTSGGSTFYADSVKGRFTISRDNAKNTVYLQMNSLKPEDTAVYYCAARFRYYGSEYDYWGQGTQVSVSS | low polyreactivity
QVQLVESGGGLVQAGGSLRLSCPDSGFIFYLYDMGWYRQAPGKEREVVAAITDRGGSTYYADSVKGRFTITRDNAKITVYLQLKSLKPEDTAVYSCAAASSAIDSSVTMDYWGQGTQVTVSS | low polyreactivity
QDQLVESGGGLVQAGGSLRLSCAASGRIFTQNRMGWYRQAPGKERELVAVITSSGGSTYYADSVKGRFTISRDNAKNTVYLQMNSLKPEDTAVYYCAAQLVRYVGYYRFDYWGQGTQVTVSS | low polyreactivity
QVQLVESGGGLVQAGGSLRLSCAASGLTFTSYAMGWYRQAPGKERELVAAIDWSGGRTYYADSVKGRFTISRDNAKNTVYLQMNSLKPEDTAVYYCAAYSRNRALRFNYWGQGTQVTVSS | high polyreactivity
QVQLVESGGGLVQAGGSLRLSCAASGIIFRGNVMGWSRQAPGKERELVAAISGSGGRTYYADSVKGRFTISRDNAKNTVYLQMNSLKPEDTAVYYCNADKAIRYDYWGQGTQVTVSS | high polyreactivity
QVQRVESWGGLVQAGGSLRLSCAASGSIFDVYTMGWYRQAPGKERELVAAINTGGGSTYYADSVKGRFTISRDNAKNTVYFQMNSLKPEDTAVYYCAAQWWWKRPVRYEYWGQGTLVTVSS | low polyreactivity
QVQLVESGGGLVQAGGSLRLSCAASGFTFGSNVMGWYRQAPGKERELVAAIRGRGGSTYSADSVKGRFTISRDNAKNTVYLQMNSLKPEDTAVYYCNAVQRYQMGYCGQGTQVTVSS | high polyreactivity
QVQLVESGGGLVQAGGSLRLSCAASGRIFLRNAMGWYRQAPGKERELVATITSRGGSTYYADSVRGRFTISRDNAKNTVYLQMNSLKPEDTAVYYCAAKVAWGHWRGYDYWGQGTQVTVSS | low polyreactivity
QVQLVESGGGLDQAGGSLRLSCAASGSIFVTNVMGGYRQAPGKERELVAAISSSGTRTYADSVKGRFTISRDNAKNTVYLQMNSLKTEDTAVYYCAKDYRVWVAATIAHDYWGQGTQVTVSS | low polyreactivity
QVQLVESGGGLVQAGGSLRLSCAASGSIFVTNAMGWYRQAPGKERELVAAITRGGNTNYADSVKGRFTISRDNAKNTVYLQMNSLKPEDTAVYYCAADTSYYYVYGYFPGYYYWGLGTQVTVSS | low polyreactivity
QVQLVESGGGLVQAGGSLRLSCAASGSIFSPYAMGWYRQAPGKEREFVAAITWSDGGTYADSVKGRFTISRDNAKNTVYLQMNSRKPEDTAVYYCAAKLASYLVTGMDYWGQGTQVTVSS | low polyreactivity
QVQLVESGGGLVQAGGSLRLSCAASGRIFSGYAMGWYRQAPGKEREFVAAITSSGRTKYADSVKGRFTISRDNAKNTVYLQMNSLKPEDTAVYYCAARPSQWNYDYRRVYYWGQGTQVTVSS | high polyreactivity
QVQLVESGGGLVQAGGSLRLSCAASGRTFVYNAMGWYRQAPGIERELVAAITTSGASTYYADSVKGRFTISRDNAKNTVYLQMNSLKPEDTAVYDCNAYSRYSYGRTYGYWGQGTQVTVSS | high polyreactivity
QVQLVESWGGLVQAGGSLRLSCAASGRIFANYGMGWYRQAPRKERELVAAIDRSGGTTFYADSVKGRFTISRDNAKNTVYLQMNSLKPEDTAVYYCAAALSYWYYAYYYWGQGTQVTVSS | low polyreactivity
QDQLVESGGGLVQAGGSLRLSCASSGFTIVYYAMGWYRQAPGKERELVADISSYGSTYADSVKGRFTISRDNAKNTVYLLMNSLKPEDTAVYYCAAEYIYQPHYGYYYWGQGTQVTVSS | high polyreactivity
QVQLVESGGGLVQAGGSLRLSCAASGSIFRYYAMGWYRQAPGKERELVASISWSGTSTNYADSVKGRFTISRDNAKNTVYLQMNSLKPEDTAVYYCNKVRWGRYYTRYDYWGQGTQVTVSS | high polyreactivity
QVQLVESGGGLVQAGGRLRISCAASGRIFPYNAMGWYIQAPGKERELVAAINWSGGSTYYADSVKGRFTISRDNAKNTVYLQMNSLKPEDTAVYYCAVKTVRSSSRNYWGQGTQVTVSS | high polyreactivity

Sequence | polyreactivity (PSR sort gate)
QVQRVESGVGLVQAGGSLRLSCAASGRIFRPYAMGWFRQARGNERELVAAITYSGGSTRYADSVKGRFTLSRDNAKNTVYIQMNSLKPEDTAVYYCAADLSYQDDPRWSYDYWGQGTHVTVSS | high polyreactivity
QVQLVESGGGLVQAGGSLRLSCAASGRIFKYNAMGWSIQAPGKERELVAAISSGGSTKYADSVKGRFTISRDNAKNTVYLQMNSLKPEDTAVYYCNAVYTPYRRSFYYWGHGTQVTVSS | high polyreactivity
QVQLVESGGGLVQAGGSLRLSCAASGRTSWYYAMGWYRQAPGKERELVAAITASGGSTYADSVKWRFTISRDNAKNTVYLQMNSLKPEDTAVYYCAAERPYSRVGYYYWGQGTQVTVSS | high polyreactivity
QVQLVESGGGLVQAGGSLRLSCAASGFIFGAYAMGWYRQAPGKERELVAAITKSGGRTYYADSVKGRFTISRDNAKNTVYLQMNSLKPEDTAVYYCAAVTRYPGEYDYWGQGTQVTVSS | high polyreactivity
QVQLVESGGGLVQAGGSLRLSCAASGSTFGTYAQGCYRQAPVKDRELVAAITYSTGNTYDADSVKGRFTISRDNAKNTVYLQMNSLKPEDTAVYYCALEYVYDYFWMDYWGQGTQVTVSS | high polyreactivity
QVQLVESGGGLVQAGGSLRLSCAASGPTFPVKSMGWYRQAPGKERELVAAISWRDGRTYYADSVKGRFTISRDNAKNTVYLQMNSLKPEDTAVYYCNVVKRRSDWGMDYWGQGTQVTVSS | high polyreactivity
QVQLVESGGGLVQAGGSLRLSCAASGLTIFRNAMGWYRQAPGKEREFVAGITSTDGSTYYADSVKGRFTISRDNAKNTVYLQMNSLKPEDTAVYYCAAAYRVRGRTYDSWGQGTQVTVSS | high polyreactivity
QVQLVESGGGLVQAGGSLRLSCAASGITLDRYAMGWYRQAPGKERELVAAISRSTTSTYYADSVKGRFTISRDNAKNTVYLQMNSLKREDTAVYYCATRTYRVDPEYGYWGQGTQVTVSS | high polyreactivity
QVQLVESGGGLVQAGGSLRLSCAASGFTFNRYAMGWYRQAPGKERELVATITSGGNTYYADSVKGRFTISRDNAKNTVYLQMNSLKPEDTAVYYCNKRGWYSVYRRDFWGQGTQVTVSS | high polyreactivity
QVQLVESGGGLVQAGGSLRLSCAASGSIFYSNFMGWYRQAPGKERELVARITDAGSTNYADSVKGRFTISRDNAKNSVYLQMNSLKPEDTAVYYCNARLVIYTYDYWGQGTQVTVSS | low polyreactivity
QVQLVESGGGLVQAGGSLRLSCAASGLTFDWYTMGWYRQAPGKERELVATINSGGSTDYADSVKGRFTISRDNAKNNVYLQMNSLKPEDTAVYYCNAEYGYSGVGDDYWGQGTQVTVSS | low polyreactivity
QVQLVESGGGLVQAGGSLRLSCAASGRIFAVNTMGWYRQAPGKEREFVAAISDSGGGTYYADSVKGRFTISRDNAKKTVYLQMNSLKPEDTAVYYCNAKGQRSPYSKLEYWGQGTQVTVSS | high polyreactivity
QVQLVETGGGLVQAGGSLRLSCAASGRTFWYYAMGWYRQAPVTERELVAYADSVKGRFTISRDNAKNTVYLQMNSLKPEDTAVYYCAVGPVVWFSSSLYYTDYYYWGQGTEVTVSS | low polyreactivity
QVQLVESGGGLVQAGGSLRLSCAASGFIFRYYAMGWYRQAPGKERELVAAISSRGSTYYADSVKGRFTISRDNAKNTVYLQMNRLKPEYTALYYCAARGGYRLRYIPYVRYDYWGQGTQLTVSS | high polyreactivity
QVQLVESGGGLVQAGGSLRLSCAASGGIIFYYAMGWYRQAPGKERALVAAISYSGGSTYYADSVKGRFTISRDNAKNTVYLQMNSLKPEDTAVYYCAARTHYFPWPWYVWDYDSWGQGTQVTVSS | low polyreactivity
QVQLLESGGGLVQAGRSLRLSCAPSGIIFRVYAMGWYRQAPGKERELVAAISSSGGNTYYADSVKGRFTISRDNAKNTVYLQLNSLKPEDTAVYYCAAPYGQLFTQGTWYEYWGQGTQVTVSS | low polyreactivity
QVQLVESGGGLVQAGGSLRLICAASGRTFYPSVMGWYRQAPGKERELVARIRWSGSSTYYADSVKGRFTISRDNAKNTVYLQMNSLKPEDTAVYYCNARPSWYVLGSSVHSGMGYWGQGTQVTVSS | high polyreactivity
QVHLVESGGGLVQAGGSLRLSCAASGSIFSDYAMGWYRQAPGKERELVAAITWSGGSTYYADSVKGRFTISRDNAKNTVYLQMNSLKPEDTAVYYCAARFGKVRDFRYAYLLEYDYWGQGTQVTVSS | low polyreactivity
QVQLVESGGGLVQAGGSLRLSCAASGYIFSDNTMGWYRPAPGKERELVAVITSGTSTSYADSVKGRFTISRDNAKNTVYLQMNSLKPEDTAVYDCARESVTYFWYYTPEVDYWGQGTQVTVSS | low polyreactivity
QVQHVESGGGLVQAGGSLRLSCAASGIIFPYNAMGWYRQAPGKERELVAAITGGGSTYYADSVKGRFTISRDNAKNTVYLQMNSLKPEDTAVYYCAADRSGPGYDYWGQGTQVTVSS | low polyreactivity
